Test results taken from paper PMC11106242, “Homozygous EPRS1 missense variant causing hypomyelinating leukodystrophy-15 alters variant-distal mRNA m^6A site accessibility” (Nature Communications, 2024).
Positions count from the first letter of the chain named. Names may count otherwise.

B1: Wild-type ProRS fragment of human EPRS1 (aa 930-1512) (domain or fragment, UniProt P07814 930-1512, looked up)
chain: IAVQELLQLKAQYKSLIGVEYKPVSATGAEDKDKKKKEKENKSEKQNKPQKQNDGQRKDPSKNQGGGLSSSGAGEGQGPKKQTRLGLEAKKEENLADWYSQVITKSEMIEYHDISGCYILRPWAYAIWEAIKDFFDAEIKKLGVENCYFPMFVSQSALEKEKTHVADFAPEVAWVTRSGKTELAEPIAIRPTSETVMYPAYAKWVQSHRDLPIKLNQWCNVVRWEFKHPQPFLRTREFLWQEGHSAFATMEEAAEEVLQILDLYAQVYEELLAIPVVKGRKTEKEKFAGGDYTTTIEAFISASGRAIQGGTSHHLGQNFSKMFEIVFEDPKIPGEKQFAYQNSWGLTTRTIGVMTMVHGDNMGLVLPPRVACVQVVIIPCGITNALSEEDKEALIAKCNDYRRRLLSVNIRVRADLRDNYSPGWKFNHWELKGVPIRLEVGPRDMKSCQFVAVRRDTGEKLTVAENEAETKLQAILEDIQVTLFTRASEDLKTHMVVANTMEDFQKILDSGKIVQIPFCGEIDCEDWIKKTTARDQDLEPGAPSMGAKSLCIPFKPLCELQPGAKCVCGKNPAKYYTLFGRSY
notes: ProRS fragment of human EPRS1 (glutamyl-prolyl-tRNA synthetase), aa 930-1512, subcloned in pTRC-HisB; also called recombinant WT ProRS; ProRS domain; source: E. coli BL21 Codon-plus (DE3)RIPL, purified (HisTrap HP column)
B2: P1482T mutant ProRS fragment of human EPRS1 (aa 930-1512) (domain or fragment, UniProt P07814 930-1512, looked up)
chain: B1 chain with P553T
notes: The substitution is a natural patient variant; also called Pro1482Thr ProRS; P1482T ProRS; source: E. coli BL21 Codon-plus (DE3)RIPL, purified (HisTrap HP column)

Molecular target: the molecule itself
Test: SEC; Superdex 200 size-exclusion column pre-calibrated with Bio-Rad gel-filtration standards, in purification buffer (50 mM Tris-HCl pH 8.0, 100 mM NaCl, 10% glycerol); monomer to dimer

Row | Protein | stoichiometry N
1 | B1 | 2
2 | B2 | 2
